In patent publication US9259479B2, “Treatment for comorbid diabetes with chronic kidney disease” (Eli Lilly and Company, priority 2012, dated 2016):
Like-named read-outs stand apart in the source and are kept apart here.

Details: rat, in vivo
Method: To induce diabetes, 10-week old male Harlan Sprague Dawley rats (Harlan, Indianapolis, Ind., USA) 250-280 g body weight, are dosed intravenously (IV) via tail vein with 45 mg/kg streptozotocin (STZ) in 0.5 M citric acid, pH 4.5, three days prior to study. […] Graphical and noncompartmental PK analyses are performed using SigmaPlot v11 (Systsat Software, Inc., San Jose, Calif.) and WinNonlin® Professional v5.3 (Pharsight®, St Louis, Mo., USA), respectively.

Substance: PEG20kDa-LysB29 human insulin
- Tmax (male, Harlan Sprague Dawley, sc): 12 ± 0 h
- CL/F (male, Sprague Dawley, sc): 1.13 ± 0.12 mL/min/kg
- PK profile of the two molecules compared: statistically similar
- CL/F (sc): 1.67 ± 0.33 mL/min/kg
- Cmax (sc, 93 nmol/kg): 41.1 ± 6.3 nM
